Source: patent WO2019030706A1 (dated 2019)

Experiments:
prothrombin [1] = target: T1, prothrombin (human, UniProt P00734 44-622); assay: pull-down with IgA binding lectin-agarose, supernatant on SDS-PAGE
mature human thrombin = mature human thrombin (human, UniProt P00734 314-363; P00734 364-622); assay: estimate from the rate of S2238 hydrolysis by thrombin
prothrombin [2] = target: T1, prothrombin; assay: ForteBio Octet, immobilized IgG

| binding result (prothrombin [1]) | Kd (mature human thrombin) | binding result (prothrombin [2]) | Binder |
| --- | --- | --- | --- |
| no binding | ~12 nM |  | wild-type anti-exosite 1 IgA antibody (antibody, V domains shown, also called anti-thrombin IgA; anti-IIa IgA) VH: QVQLIQSGSAVKKPGASVRVSCKVSGYTLTEAAIHWVRQAPGKGLEWMGGLDPQDGETVYAQQFKGRVTMTEDRSTDTAYMEVNNLRSEDTATYYCTTGDFSEFEPFSMDYFHFWGQGTVVTVAS VL: EIVLTQSPATLSLSPGERATLSCRASQNVSSFLAWYQHKPGQAPRLLIYDASSRATDIPIRFSGSGSGTDFTLTISGLEPEDFAVYYCQQRRSWPPLTFGGGTKVEIKR |
|  |  | no binding (tested: 500nM) | synthetic anti-exosite 1 IgG antibody (antibody, V domains shown, also called synthetic IgG; anti-exosite IgG antibody) VH: QVQLIQSGSAVKKPGASVRVSCKVSGYTLTEAAIHWVRQAPGKGLEWMGGLDPQDGETVYAQQFKGRVTMTEDRSTDTAYMEVNNLRSEDTATYYCTTGDFSEFEPFSMDYFHFWGQGTVVTVAS VL: EIVLTQSPATLSLSPGERATLSCRASQNVSSFLAWYQHKPGQAPRLLIYDASSRATDIPIRFSGSGSGTDFTLTISGLEPEDFAVYYCQQRRSWPPLTFGGGTKVEIKR |
